Key:
[1] = target: His-Dwg wild type; test: GST pull-down; details: parent: est. 41; read off a plot
[2] = target: GST-Atg8a wild type (UniProt Q9W2S2); test: GST pull-down; details: parent: est. 27; read off a plot
Sequence of UniProt Q9W2S2 (Q9W2S2 entry or part of it): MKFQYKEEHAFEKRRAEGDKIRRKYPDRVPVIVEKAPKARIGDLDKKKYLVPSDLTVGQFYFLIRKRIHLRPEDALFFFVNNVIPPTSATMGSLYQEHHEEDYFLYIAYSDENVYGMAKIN

Row | other: Fold Change [1] | other: Fold Change [2] | Substance
1 | 4.4 |  | GST-Atg8a wild type (from UniProt Q9W2S2) Y49A
2 |  | 9.5 | His-Dwg wild type Y129A; I132A
